# Values of other authors as cited in patent US20250332099A1, “PROCESS FOR FORMULATING COMPOSITIONS COMPRISING GLUCAGON-LIKE-PEPTIDE-2 (GLP-2) ANALOGUES” (ZEALAND PHARMA A/S, priority 2021, published 2025).
Molecule,half-life (compared with seven minutes for native GLP-2),half-life in humans
CC[C@H](C)[C@H](NC(=O)[C@H](Cc1ccccc1)NC(=O)[C@H](CC(=O)O)NC(=O)[C@H](CCCNC(=N)N)NC(=O)[C@H](C)NC(=O)[C@H](C)NC(=O)[C@H](CC(C)C)NC(=O)[C@H](CC(N)=O)NC(=O)[C@H](CC(=O)O)NC(=O)[C@H](CC(C)C)NC(=O)[C@@H](NC(=O)[C@@H](NC(=O)[C@H](CC(N)=O)NC(=O)[C@H](CCSC)NC(=O)[C@H](CCC(=O)O)NC(=O)[C@H](CC(=O)O)NC(=O)[C@H](CO)NC(=O)[C@H](Cc1ccccc1)NC(=O)[C@H](CO)NC(=O)CNC(=O)[C@H](CC(=O)O)NC(=O)CNC(=O)[C@@H](N)Cc1c[nH]cn1)[C@@H](C)O)[C@@H](C)CC)C(=O)N[C@@H](CC(N)=O)C(=O)N[C@@H](Cc1c[nH]c2ccccc12)C(=O)N[C@@H](CC(C)C)C(=O)N[C@H](C(=O)N[C@@H](CCC(N)=O)C(=O)N[C@H](C(=O)N[C@@H](CCCCN)C(=O)N[C@H](C(=O)N[C@H](C(=O)N[C@@H](CC(=O)O)C(=O)O)[C@@H](C)O)[C@@H](C)CC)[C@@H](C)O)[C@@H](C)CC [teduglutide],about two,–
"GLP-2 [3-33]: truncated GLP-2 [3-33] (DGSFSDEMNTILDNLAARDFINWLIQTKITD; Glucagon-like peptide 2; UniProt P01275 148-178, looked up, fragment)",–,27 min
Hy-His-Ala-Asp-Gly-Ser-Phe-Ser-Asp-Glu-Met-Asn-Thr-Ile-Leu-Asp-Asn-Leu-Ala-Ala-Arg-Asp-Phe-Ile-Asn-Trp-Leu-Ile-Gln-Thr-Lys-Ile-Thr-Asp-OH [GLP-2 [1-33]],–,around 7 minutes
